Article doi:10.1101/2024.04.24.590896 (bioRxiv, 2024)

B1: syntaxin 18 SNARE domain (aa 229-312) (domain or fragment)
chain: EEIQMFEQENQRLIGEMNSLFDEVRQIEGKVVEISRLQEIFTEKVLQQETEIDSIHQLVVGATENIKEGNEDIREAIKNNAGFR
B2: Sec20 SNARE domain (aa 133-198) (domain or fragment)
chain: QTSSSITESLMGISRMMSQQVQQSEEAMQTLVSSSRTLLDANEEFKSMSGTIQLGRKLITKYNRRE

Columns and labels:
[1] = target: synaptobrevin 2 (aa 1-96) (Rattus norvegicus, UniProt P63045 1-96); test: native gel or EMSA
[2] = target: B1; test: SEC
[3] = target: B1; test: native gel or EMSA + SEC
[4] = target: B2; test: SEC

Chain of synaptobrevin 2 (aa 1-96) (P63045 1-96): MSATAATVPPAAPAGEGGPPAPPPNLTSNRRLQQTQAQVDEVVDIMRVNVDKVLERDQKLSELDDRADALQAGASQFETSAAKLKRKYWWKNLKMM

Binder: B1
- binding result [1]: binds

Binder: B2
- binding result [2]: binds

B3: U_SNAP (Sec20, aa 133-198; Use1, aa 174-239) (other)
chain: QTSSSITESLMGISRMMSQQVQQSEEAMQTLVSSSRTLLDANEEFKSMSGTIQLGRKLITKYNRREGLSVSPSNKLKSSDAYKKAWGNNQDGVVASQPARVVDEREQMAISGGFIRRVTNDQRHQGLQEKLAEEMLGLARSLKTNTLAAQSVIKKDNQTLSHSLKMADQNLEKLKLESERLEQHAQK
- binding result [3]: binds

B4: Use1 SNARE domain (aa 174-239) (domain or fragment)
chain: QRHQGLQEKLAEEMLGLARSLKTNTLAAQSVIKKDNQTLSHSLKMADQNLEKLKLESERLEQHAQK
- binding result [2]: binds
- binding result [4]: binds
